Test results reported in patent US20150344570A1 (published 2015).
Numbering of substitutions follows the chain as printed. In names and notes the source's numbering stands.

T1: FcgRIIaR (human, UniProt P12318 34-217)
T1 construct: extracellular domain; also called FcγRIIa R; FcγRIIa type R; not shown: His tag at the C terminus
T1 sequence (looked up): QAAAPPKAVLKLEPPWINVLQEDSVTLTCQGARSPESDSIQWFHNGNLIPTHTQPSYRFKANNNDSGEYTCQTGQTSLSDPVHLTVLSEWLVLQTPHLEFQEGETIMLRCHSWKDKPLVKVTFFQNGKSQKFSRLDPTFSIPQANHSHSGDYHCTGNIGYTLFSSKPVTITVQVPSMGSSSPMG

T2: FcgRIIb (human, UniProt P31994 43-217)
T2 construct: extracellular domain; also called FcγRIIb; CD32B; not shown: His tag at the C terminus
T2 sequence (looked up): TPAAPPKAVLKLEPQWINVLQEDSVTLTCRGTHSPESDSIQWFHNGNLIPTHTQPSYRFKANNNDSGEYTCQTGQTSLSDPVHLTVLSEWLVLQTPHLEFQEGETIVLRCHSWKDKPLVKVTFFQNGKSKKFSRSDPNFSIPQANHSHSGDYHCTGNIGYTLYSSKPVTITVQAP

T3: FcgRIIaH (human, UniProt P12318 34-217)
T3 construct: extracellular domain; also called FcγRIIa H; FcγRIIa type H; not shown: His tag at the C terminus
T3 sequence (looked up): T1 sequence (looked up) with R134H

B1: H240-Kn205/H240-Hl212/L73-k0 (antibody, human IgG1, kappa)
heavy 1: QDQLVQSGAEVKKPGASVKVSCKASGFNIKDTYIQWVRQAPGQGLEWMGRIDPLRKQTKYREKFEGRVTITADTSTNTAYMELSSLRSEDTAVYYCVRSGREFDYWGQGTLVTVSSASTKGPSVFPLAPSSKSTSGGTAALGCLVKDYFPEPVTVSWNSGALTSGVHTFPAVLQSSGLYSLSSVVTVPSSSLGTQTYICNVNHKPSNTKVDKKVEPKSCDKTHTCPPCPAPEYLGGPSVFLFPPKPKDTLMISRTPEVTCVVVDVSHEDPEVKFNWYVDGVEVHNAKTKPREEQWNCTYRVVSVLTVLHQDWLNGKEYKCKVSNKALPAPIEKTISKAKGQPREPQVCTLPPSRDELTKNQVSLWCLVKGFYPSDIAVEWESNGQPENNYKTTPPVLDSDGSFFLYSKLTVDKSRWQQGNVFSCSVMHEALHNHYTQKSLSLSP
heavy 2: B1 heavy 1 with Y233L, S238D, W295Y, C297S, K333V, C348Y, D355C, W365S, L367A, Y406V
light: DIQMTQSPSSLSASVGDRVTITCRASQDIHKYIAWYQQKPGQAPRLLIQYTSTLQPGVPSRFSGSGSGTDYTFTISSLQPEDIATYYCLQYEQLRTFGGGTKVEIKRTVAAPSVFIFPPSDEQLKSGTASVVCLLNNFYPREAKVQWKVDNALQSGNSQESVTEQDSKDSTYSLSSTLTLSKADYEKHKVYACEVTHQGLSSPVTKSFNRGEC
notes: L234Y/Y296W/S298C in one H chain, S239D/K334V in the other
B2: H240-afucosyl_G1d/L73-k0 (antibody, human IgG1, kappa)
heavy: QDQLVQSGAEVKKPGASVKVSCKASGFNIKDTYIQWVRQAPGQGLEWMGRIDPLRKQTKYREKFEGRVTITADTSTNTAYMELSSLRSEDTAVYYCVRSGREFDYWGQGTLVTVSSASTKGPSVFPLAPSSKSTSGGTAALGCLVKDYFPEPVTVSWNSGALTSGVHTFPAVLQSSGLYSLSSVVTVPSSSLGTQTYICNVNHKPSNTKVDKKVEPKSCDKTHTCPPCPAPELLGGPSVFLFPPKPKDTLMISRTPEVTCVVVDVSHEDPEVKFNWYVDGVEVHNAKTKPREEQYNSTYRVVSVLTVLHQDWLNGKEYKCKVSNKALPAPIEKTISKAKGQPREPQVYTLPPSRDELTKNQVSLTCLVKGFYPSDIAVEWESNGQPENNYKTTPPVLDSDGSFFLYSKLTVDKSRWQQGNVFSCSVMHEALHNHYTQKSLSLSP
light: B1 light
modifications: fucose removed from the sugar chain (afucosylated)
notes: Anti-epiregulin IgG1, afucosylated; also called afucosylated antibody
B3: H240-Kn229/H240-Hl068/L73-k0 (antibody, human IgG1, kappa)
heavy 1: B1 heavy 1 with L234Y, G235W, S238I, H267D, W295Y, C297A, A326D
heavy 2: QDQLVQSGAEVKKPGASVKVSCKASGFNIKDTYIQWVRQAPGQGLEWMGRIDPLRKQTKYREKFEGRVTITADTSTNTAYMELSSLRSEDTAVYYCVRSGREFDYWGQGTLVTVSSASTKGPSVFPLAPSSKSTSGGTAALGCLVKDYFPEPVTVSWNSGALTSGVHTFPAVLQSSGLYSLSSVVTVPSSSLGTQTYICNVNHKPSNTKVDKKVEPKSCDKTHTCPPCPAPELLGGPSVFLFPPKPKDTLMISRTPEVTCVVVDVSHEEPEVKFNWYVDGVEVHNAKTKPREEQYNSTYRVVSVLTVLHQDWLNGKEYKCKVSNDALPKPIEETISKAKGQPREPQVYTLPPSRCELTKNQVSLSCAVKGFYPSDIAVEWESNGQPENNYKTTPPVLDSDGSFFLVSKLTVDKSRWQQGNVFSCSVMHEALHNHYTQKSLSLSP
light: B1 light
B4: H240-Kn225/H240-Hl076/L73-k0 (antibody, human IgG1, kappa)
heavy 1: B1 heavy 1 with L234Q, G235W, S238I, H267D, D269E, W295Y, C297A
heavy 2: B3 heavy 2 with K329M
light: B1 light
B5: GpH7-G1d/GpL16-k0 (antibody, human IgG1, kappa)
heavy: not shown
light: DIVMTQSPLSLPVTPGEPASISCQASESLVHSNRNTYLHWYLQKPGQSPQLLIYKVSNRFSGVPDRFSGSGSGTDFTLKISRVEAEDVGVYYCSQNTHVPPTFGQGTKVEIERTVAAPSVFIFPPSDEQLKSGTASVVCLLNNFYPREAKVQWKVDNALQSGNSQESVTEQDSKDSTYSLSSTLTLSKADYEKHKVYACEVTHQGLSSPVTKSFNRGEC
notes: Anti-glypican-3 IgG1 whose H chain lacks the C-terminal Gly and Lys; Used as the native IgG1 control; also called native IgG1
B6: GpH7-G1d/GpL16-k0 (antibody, human IgG1, kappa)
heavy: not shown
light: B5 light
notes: Anti-glypican-3 IgG1 with C-terminal Gly and Lys removed; also called native IgG1
B7: GpH7-A5/GpH7-B3/GpL16-k0 (antibody, human IgG1, kappa)
heavy 1: not shown
heavy 2: not shown
light: B5 light
notes: also called A5/B3; HeCon Ab
B8: GpH7-A5/GpH7-B78/GpL16-k0 (antibody, human IgG1, kappa)
heavy 1: not shown
heavy 2: QVQLVQSGAEVKKPGASVTVSCKASGYTFTDYEMHWIRQPPGEGLEWIGAIDPKTGDTAYSESFQDRVTLTADKSTSTAYMELSSLTSEDTAVYYCTRFYSYTYWGQGTLVTVSSASTKGPSVFPLAPSSKSTSGGTAALGCLVKDYFPEPVTVSWNSGALTSGVHTFPAVLQSSGLYSLSSVVTVPSSSLGTQTYICNVNHKPSNTKVDKKVEPKSCDKTHTCPPCPAPELLGGPDVFLFPPKPKDTLMISRTPEVTCVVVDVSHEDPEVKFNWYVDGVEVHNAKTKPREEQYNSTYRVVSVLTVLHQDWLNGKEYKCKVSNKALPLPEEKTISKAKGQPREPQVYTLPPSRDELTKNQVSLTCLVKGFYPSDIAVEWESNGQPENNYKTTPPVLDSDGSFFLYSKLTVDKSRWQQGNVFSCSVMHEALHNHYTQESLSLSP
light: B5 light
notes: Heterodimerized anti-glypican-3 IgG1; also called A5/B78
B9: GpH7-A57/GpH7-B78/GpL16-k0 (antibody, human IgG1, kappa)
heavy 1: B8 heavy 2 with D354K, H433R, E437K
heavy 2: B8 heavy 2
light: B5 light
notes: Anti-glypican-3 IgG1; also called A57/B78
B10: GpH7-TA7/GpH7-B78/GpL16-k0 (antibody, human IgG1, kappa)
heavy 1: B8 heavy 2 with L232Y, G234W, D237S, S296A, L328A, E330I, D354K, H433R, E437K
heavy 2: B8 heavy 2
light: B5 light
notes: Heterodimerized anti-glypican-3 IgG1; also called TA7/B78
B11: GpH7-TA7/GpH7-B3/GpL16-k0 (antibody, human IgG1, kappa)
heavy 1: B8 heavy 2 with L232Y, G234W, D237S, S296A, L328A, E330I, D354K, H433R, E437K
heavy 2: not shown
light: B5 light
notes: Heterodimerized anti-glypican-3 IgG1; also called TA7/B3
B12: GpH7-TA7/GpH7-TA45/GpL16-k0 (antibody, human IgG1, kappa)
heavy 1: B8 heavy 2 with L232Y, G234W, D237S, S296A, L328A, E330I, D354K, H433R, E437K
heavy 2: B8 heavy 2 with L232Y, G234W, D237S, S296A, L328A, E330I
light: B5 light
notes: Anti-glypican-3 IgG1; also called TA7/TA45

Experiments:
FcgRIIIaV = target: T4, FcgRIIIaV (human, UniProt P08637 17-208); experiment: SPR (Biacore); KD of H240-Kn033/H240-Hl033/L73-k0 divided by KD of the variant
T4 construct: extracellular domain; also called FcγRIIIa V; not shown: His tag at the C terminus
Description: (§1) Binding of the produced variants to FcgRIa, FcgRIIaR, FcgRIIaH, FcgRIIb, FcgRIIIaF, and FcgRIIIaV was measured according to the method of Reference Example 8.
(§2) Analysis of interaction between objective antibody and the FcγR was carried out using Biacore T100 (GE Healthcare), Biacore T200, Biacore A100, and Biacore 4000. HBS-EP+ (GE Healthcare) was used as the running buffer, and the measurement temperature was set to 25° C. Chips produced by immobilizing the antigen peptide by the amine coupling method to a Series S sensor Chip CM5 (GE Healthcare), chips produced by allowing preliminarily biotinylated antigen peptides to interact with and immobilize onto a Series S Sensor Chip SA (certified) (GE Healthcare), chips produced by immobilizing Protein L (ACTIGEN, BioVision) to Series S Sencor Chip CM5 (GE Healthcare), or chips produced by immobilizing Protein A/G (Thermo Scientific) to Series S Sencor Chip CM5 (GE Healthcare) were used. Antibodies of interest were captured onto these chips, and allowed to interact to each FcγR diluted with running buffer. To regenerate and repeatedly use the chip, the antibodies captured onto the chip were washed off by reacting 10 mM glycine-HCl, pH 1.5.

FcgRIIaR = target: T1, FcgRIIaR; experiment: as above
Description: as §1, §2

FcgRIIIaF = target: T5, FcgRIIIaF (human, UniProt P08637 17-208); experiment: as above
T5 construct: extracellular domain; also called FcγRIIIa F; not shown: His tag at the C terminus
Description: as §1, §2

FcgRIIb = target: T2, FcgRIIb; experiment: as above
Description: as §1, §2

FcgRIIaH = target: T3, FcgRIIaH; experiment: as above
Description: as §1, §2

FcγRIIIa = target: T6, FcγRIIIa (human, UniProt P08637 17-208); experiment: ratio of SPR KDs: KD of GpH7-G1d/GpL16-k0 divided by KD of this antibody
T6 construct: extracellular domain; also called FcgRIIIa; CD16A; not shown: His tag attached to the C terminus
Description: The prepared antibodies were compared for the FcγRIIIa-binding activity using, as an indicator, KD for FcγRIIIa that was determined according to the method described in Reference Example 2.
(§3) Analysis of interaction between objective antibody and the FcγR was carried out using Biacore T100 (GE Healthcare). HBS-EP+ (GE Healthcare) was used as the running buffer, and the measurement temperature was set to 25° C. Chips produced by immobilizing the antigen peptide by the amine coupling method to a Series S Sencor Chip CM5 (GE Healthcare), or alternatively, chips produced by allowing preliminarily biotinylated antigen peptides to interact with and immobilize onto a Series S Sensor Chip SA (certified) (GE Healthcare) were used. Antibodies of interest were captured onto an antigen peptide-immobilized chip, and allowed to interact to each FcγR diluted with running buffer. To regenerate and repeatedly use the chip, the antibodies captured on the chip were washed off by reacting 10 mM glycine-HCl, pH 1.5.
Specifically, to calculate association rate constant ka (L/mol/s) and dissociation rate constant kd (1/s), sensorgrams obtained by measurement were processed for global fitting by Biacore Evaluation Software using 1:1 Langmuir binding model and dissociation constant KD (mol/1) was calculated from the resulting values.

[1] = target: T7, FcγRIIIa F extracellular domain with C-terminal His tag (human, UniProt P08637 17-208); experiment: SPR (Biacore); KD for FcγRIIb divided by KD for FcγRIIIa F
T7 construct: extracellular domain; Soluble receptor, F158 allotype; also called FcgRIIIa F; FcgRIIIaF; not shown: His tag at the C terminus
Description: The prepared antibodies were assayed as to the KDs for FcγRIIIa and FcγRIIb according to the method described in Reference Example 2.
as §3

T5 sequence (P08637 17-208): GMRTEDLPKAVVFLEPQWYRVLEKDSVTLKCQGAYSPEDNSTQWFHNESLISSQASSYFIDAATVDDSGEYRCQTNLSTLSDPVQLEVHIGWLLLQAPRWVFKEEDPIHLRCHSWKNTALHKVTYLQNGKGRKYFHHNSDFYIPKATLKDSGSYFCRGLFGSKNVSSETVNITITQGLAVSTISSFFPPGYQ
T7 sequence (P08637 17-208): as above
T4 sequence (P08637 17-208 F176V limits assumed): as the sequence (P08637 17-208) above, with F160V counted along it
T6 sequence (P08637 17-208): as the sequence (P08637 17-208) above

| Binder | fold 3aV (FcgRIIIaV) [fold] | fold 2aR (FcgRIIaR) [fold] | fold 3aF (FcgRIIIaF) [fold] | fold 2b (FcgRIIb) [fold] | fold 2aH (FcgRIIaH) [fold] | FcγRIIIa F/FcγRIIb ratio [1] | further results |
| --- | --- | --- | --- | --- | --- | --- | --- |
| B1 | 11.4 | 1.2 | 24.2 | 2.1 | 1.4 |  |  |
| B2 | 7 | 1.5 | 3.7 | 1.3 | 0.7 |  |  |
| B3 | 62.3 | 46.3 | 138 | 16.5 | 13.3 |  |  |
| B4 | 253 | 1.5 | 264 | 0.6 | 3.1 |  |  |
| B5 |  |  |  |  |  |  | KD ratio 1 (FcγRIIIa): 1 fold |
| B6 |  |  |  |  |  | 2.5 |  |
| B7 |  |  |  |  |  | 1.9 |  |
| B8 |  |  |  |  |  | 7.9 |  |
| B9 |  |  |  |  |  | 100 |  |
| B10 |  |  |  |  |  | 244 |  |
| B11 |  |  |  |  |  | 14 |  |
| B12 |  |  |  |  |  | 5.3 |  |
